The results in this text go back to patent US20200181263A1 (NUMAB THERAPEUTICS, published 2020).

In general, Kd refers to a measure of binding affinity in units of concentration. Low values mean a tighter complex, high ones a looser complex.

To fix the notation:
T1: cyno CD3 (cyno, UniProt Q95LI5 22-117)
T1 sequence (looked up): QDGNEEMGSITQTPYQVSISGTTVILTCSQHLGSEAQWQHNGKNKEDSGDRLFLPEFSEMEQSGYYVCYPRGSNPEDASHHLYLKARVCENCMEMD

T2: human IL-23 receptor ECD (human, UniProt Q5VWK5 24-355)
T2 construct: extracellular domain
T2 sequence (looked up): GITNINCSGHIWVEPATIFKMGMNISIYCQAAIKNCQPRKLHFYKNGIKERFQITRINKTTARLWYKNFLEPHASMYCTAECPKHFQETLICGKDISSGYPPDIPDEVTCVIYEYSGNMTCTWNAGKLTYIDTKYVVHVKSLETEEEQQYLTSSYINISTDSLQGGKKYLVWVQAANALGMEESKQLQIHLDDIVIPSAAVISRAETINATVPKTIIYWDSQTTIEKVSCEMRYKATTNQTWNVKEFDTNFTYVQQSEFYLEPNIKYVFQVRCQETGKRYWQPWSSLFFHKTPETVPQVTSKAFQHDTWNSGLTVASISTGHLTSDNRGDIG

B1: PRO747 (other)
chain 1: DIQMTQSPSSLSASVGDRVTITCQASENIYSFLAWYQQKPGKAPKLLIYSASKLAAGVPSRFSGSGSGTDFTLTISSLQPEDFATYYCQQTNRYSNPDIYNVFGTGTKVTVLGGGGGSGGGGSGGGGSGGGGSEVQLVESGGGLVQPGGSLRLSCAASGIDFNSNYYMCWVRQAPGKGLEWIGCIYVGSHVNTYYANWAKGRFTISRDNSKNTVYLQMNSLRAEDTAVYYCATSGSSVLYFKFWGQGTLVTVSSGGGGSGGGGSDIQMTQSPSSLSASVGDRVTITCQSSQSVFSNNYLAWFQQKPGQSPKRLIYSASTLASGVPSRFSGSGSGTDFTLTISSLQPEDFATYYCLGSYACSSADCYVFGCGTKVTVLGAEAAAKEAAAKADIQMTQSPSSLSASVGDRVTITCQSSESVYSNNQLSWYQQKPGQPPKLLIYDASDLASGVPSRFSGSGSGTDFTLTISSLQPEDFATYYCAGGFSSSSDTAFGGGTKLTVLG
chain 2: DIQMTQSPSSLSASVGDRVTITCQASENIYSFLAWYQQKPGKAPKLLIYSASKLAAGVPSRFSGSGSGTDFTLTISSLQPEDFATYYCQQTNRYSNPDIYNVFGTGTKVTVLGGGGGSGGGGSGGGGSGGGGSEVQLVESGGGLVQPGGSLRLSCAASGIDFNSNYYMCWVRQAPGKGLEWIGCIYVGSHVNTYYANWAKGRFTISRDNSKNTVYLQMNSLRAEDTAVYYCATSGSSVLYFKFWGQGTLVTVSSGGGGSGGGGSEVQLVESGGGLVQPGGSLRLSCAASGFSLSSNAMGWVRQAPGKGLEYIGIISVGGFTYYASWAKGRFTISRDNSKNTVYLQMNSLRAEDTATYFCARDRHGGDSSGAFYLWGQGTLVTVSSAEAAAKEAAAKAEVQLVESGGGLVQPGGSLRLSCAASGFSLSSYDMSWVRQAPGKCLAWIGASYASGPTYYASWAKGRFTISRDNSKNTVYLQMNSLRAEDTATYFCARGGWTGTSHSNIWGQGTLVTVSS
notes: Hetero-dimeric MATCH, anti-parallel; diS in anti-CD3 domain, helical linker
B2: PRO733 (other)
chain 1: DIQMTQSPSSLSASVGDRVTITCQASENIYSFLAWYQQKPGKAPKLLIYSASKLAAGVPSRFSGSGSGTDFTLTISSLQPEDFATYYCQQTNRYSNPDIYNVFGTGTKVTVLGGGGGSGGGGSGGGGSGGGGSEVQLVESGGGLVQPGGSLRLSCAASGIDFNSNYYMCWVRQAPGKGLEWIGCIYVGSHVNTYYANWAKGRFTISRDNSKNTVYLQMNSLRAEDTAVYYCATSGSSVLYFKFWGQGTLVTVSSGGGGSGGGGSDIQMTQSPSSLSASVGDRVTITCQSSESVYNNKRLSWYQQKPGKAPKLLIYTASSLASGVPSRFSGSGSGTDFTLTISSLQPEDFATYYCQGEFTCSNADCFTFGCGTKVTVLGSGGGGSGGGGSDIQMTQSPSSLSASVGDRVTITCQSSESVYSNNQLSWYQQKPGQPPKLLIYDASDLASGVPSRFSGSGSGTDFTLTISSLQPEDFATYYCAGGFSSSSDTAFGGGTKLTVLG
chain 2: DIQMTQSPSSLSASVGDRVTITCQASENIYSFLAWYQQKPGKAPKLLIYSASKLAAGVPSRFSGSGSGTDFTLTISSLQPEDFATYYCQQTNRYSNPDIYNVFGTGTKVTVLGGGGGSGGGGSGGGGSGGGGSEVQLVESGGGLVQPGGSLRLSCAASGIDFNSNYYMCWVRQAPGKGLEWIGCIYVGSHVNTYYANWAKGRFTISRDNSKNTVYLQMNSLRAEDTAVYYCATSGSSVLYFKFWGQGTLVTVSSGGGGSGGGGSEVQLVESGGGLVQPGGSLRLSCAASGFPLSSYAMIWVRQAPGKCLEWIGMILRAGNIYYASWVKGRFTISRDNSKNTVYLQMNSLRAEDTAVYYCARRHYNREGYPIGIGDLWGQGTLVTVSSSGGGGSGGGGSEVQLVESGGGLVQPGGSLRLSCAASGFSLSSNAMGWVRQAPGKGLEYIGIISVGGFTYYASWAKGRFTISRDNSKNTVYLQMNSLRAEDTATYFCARDRHGGDSSGAFYLWGQGTLVTVSS
notes: Hetero-dimeric MATCH, parallel; diS in anti-CD3 domain, 11 aa GS-linker, alternative anti-CD3
B3: PRO741 (other)
chain 1: DIQMTQSPSSLSASVGDRVTITCQASENIYSFLAWYQQKPGKAPKLLIYSASKLAAGVPSRFSGSGSGTDFTLTISSLQPEDFATYYCQQTNRYSNPDIYNVFGTGTKVTVLGGGGGSGGGGSGGGGSGGGGSEVQLVESGGGLVQPGGSLRLSCAASGIDFNSNYYMCWVRQAPGKGLEWIGCIYVGSHVNTYYANWAKGRFTISRDNSKNTVYLQMNSLRAEDTAVYYCATSGSSVLYFKFWGQGTLVTVSSGGGGSGGGGSDIQMTQSPSSLSASVGDRVTITCQSSQSVFSNNYLAWFQQKPGQSPKRLIYSASTLASGVPSRFSGSGSGTDFTLTISSLQPEDFATYYCLGSYACSSADCYVFGCGTKVTVLGSGGGGSGGGGSDVVMTQSPSSLSASVGDRVTITCQASQIISSRSAWYQQKPGQPPKLLIYQASKLASGVPSRFSGSGSGTDFTLTISSLQPEDFATYYCQCTYIDSNFGAFGGGTKLTVLG
chain 2: DIQMTQSPSSLSASVGDRVTITCQASENIYSFLAWYQQKPGKAPKLLIYSASKLAAGVPSRFSGSGSGTDFTLTISSLQPEDFATYYCQQTNRYSNPDIYNVFGTGTKVTVLGGGGGSGGGGSGGGGSGGGGSEVQLVESGGGLVQPGGSLRLSCAASGIDFNSNYYMCWVRQAPGKGLEWIGCIYVGSHVNTYYANWAKGRFTISRDNSKNTVYLQMNSLRAEDTAVYYCATSGSSVLYFKFWGQGTLVTVSSGGGGSGGGGSEVQLVESGGGLVQPGGSLRLSCAASGFSFSSSYWICWVRQAPGKGLEWVGCVFTGDGTTYYASWAKGRFTISRDNSKNTVYLQMNSLRAEDTATYFCARPVSVYYYGMDLWGQGTLVTVSSSGGGGSGGGGSEVQLVESGGGLVQPGGSLRLSCAASGFSLSSYDMSWVRQAPGKCLAWIGASYASGPTYYASWAKGRFTISRDNSKNTVYLQMNSLRAEDTATYFCARGGWTGTSHSNIWGQGTLVTVSS
notes: Hetero-dimeric MATCH, anti-parallel; diS in anti-CD3 domain, 11 aa GS-linker, alternative anti-HSA
B4: PRO737 (other)
chain 1: DIQMTQSPSSLSASVGDRVTITCQASENIYSFLAWYQQKPGKAPKLLIYSASKLAAGVPSRFSGSGSGTDFTLTISSLQPEDFATYYCQQTNRYSNPDIYNVFGTGTKVTVLGGGGGSGGGGSGGGGSGGGGSEVQLVESGGGLVQPGGSLRLSCAASGIDFNSNYYMCWVRQAPGKGLEWIGCIYVGSHVNTYYANWAKGRFTISRDNSKNTVYLQMNSLRAEDTAVYYCATSGSSVLYFKFWGQGTLVTVSSGGGGSGGGGSDIQMTQSPSSLSASVGDRVTITCQSSESVYNNKRLSWYQQKPGKAPKLLIYTASSLASGVPSRFSGSGSGTDFTLTISSLQPEDFATYYCQGEFTCSNADCFTFGCGTKVTVLGGGGGSGGGGSGGGGSDIQMTQSPSSLSASVGDRVTITCQSSESVYSNNQLSWYQQKPGQPPKLLIYDASDLASGVPSRFSGSGSGTDFTLTISSLQPEDFATYYCAGGFSSSSDTAFGGGTKLTVLG
chain 2: DIQMTQSPSSLSASVGDRVTITCQASENIYSFLAWYQQKPGKAPKLLIYSASKLAAGVPSRFSGSGSGTDFTLTISSLQPEDFATYYCQQTNRYSNPDIYNVFGTGTKVTVLGGGGGSGGGGSGGGGSGGGGSEVQLVESGGGLVQPGGSLRLSCAASGIDFNSNYYMCWVRQAPGKGLEWIGCIYVGSHVNTYYANWAKGRFTISRDNSKNTVYLQMNSLRAEDTAVYYCATSGSSVLYFKFWGQGTLVTVSSGGGGSGGGGSEVQLVESGGGLVQPGGSLRLSCAASGFPLSSYAMIWVRQAPGKCLEWIGMILRAGNIYYASWVKGRFTISRDNSKNTVYLQMNSLRAEDTAVYYCARRHYNREGYPIGIGDLWGQGTLVTVSSGGGGSGGGGSGGGGSEVQLVESGGGLVQPGGSLRLSCAASGFSLSSNAMGWVRQAPGKGLEYIGIISVGGFTYYASWAKGRFTISRDNSKNTVYLQMNSLRAEDTATYFCARDRHGGDSSGAFYLWGQGTLVTVSS
notes: Hetero-dimeric MATCH, parallel; diS in anti-CD3 domain, 15 aa GS-linker, alternative anti-CD3
B5: PRO736 (other)
chain 1: DIQMTQSPSSLSASVGDRVTITCQASENIYSFLAWYQQKPGKAPKLLIYSASKLAAGVPSRFSGSGSGTDFTLTISSLQPEDFATYYCQQTNRYSNPDIYNVFGTGTKVTVLGGGGGSGGGGSGGGGSGGGGSEVQLVESGGGLVQPGGSLRLSCAASGIDFNSNYYMCWVRQAPGKGLEWIGCIYVGSHVNTYYANWAKGRFTISRDNSKNTVYLQMNSLRAEDTAVYYCATSGSSVLYFKFWGQGTLVTVSSGGGGSGGGGSDIQMTQSPSSLSASVGDRVTITCQSSQSVFSNNYLAWFQQKPGQSPKRLIYSASTLASGVPSRFSGSGSGTDFTLTISSLQPEDFATYYCLGSYACSSADCYVFGCGTKVTVLGGGGGSGGGGSGGGGSDIQMTQSPSSLSASVGDRVTITCQSSESVYSNNQLSWYQQKPGQPPKLLIYDASDLASGVPSRFSGSGSGTDFTLTISSLQPEDFATYYCAGGFSSSSDTAFGGGTKLTVLG
chain 2: DIQMTQSPSSLSASVGDRVTITCQASENIYSFLAWYQQKPGKAPKLLIYSASKLAAGVPSRFSGSGSGTDFTLTISSLQPEDFATYYCQQTNRYSNPDIYNVFGTGTKVTVLGGGGGSGGGGSGGGGSGGGGSEVQLVESGGGLVQPGGSLRLSCAASGIDFNSNYYMCWVRQAPGKGLEWIGCIYVGSHVNTYYANWAKGRFTISRDNSKNTVYLQMNSLRAEDTAVYYCATSGSSVLYFKFWGQGTLVTVSSGGGGSGGGGSEVQLVESGGGLVQPGGSLRLSCAASGFSLSSYDMSWVRQAPGKCLAWIGASYASGPTYYASWAKGRFTISRDNSKNTVYLQMNSLRAEDTATYFCARGGWTGTSHSNIWGQGTLVTVSSGGGGSGGGGSGGGGSEVQLVESGGGLVQPGGSLRLSCAASGFSLSSNAMGWVRQAPGKGLEYIGIISVGGFTYYASWAKGRFTISRDNSKNTVYLQMNSLRAEDTATYFCARDRHGGDSSGAFYLWGQGTLVTVSS
notes: Hetero-dimeric MATCH, parallel; diS in anti-CD3 domain, 15 aa GS-linker

The first experiment addresses human IL23R IL12Rbeta 1 heterodimer on CHO-K1 cells (human, UniProt Q5VWK5 24-629; P42701 24-662). As to the kind of experiment: cell-based or functional assay.
B1: the “NFAT assay EC50 (T-cell activation, 5 h)” value was 1.45 nM.

Take B2: the “NFAT assay EC50 (T-cell activation, 5 h)” value amounted to 0.152 nM.

Another experiment deals with T3, human CD3 gamma-epsilon single-chain (human, UniProt P09693 23-103; P07766 23-118).
T3 construct: Recombinant protein immobilised on the SPR chip
As to the kind of experiment: SPR, target immobilised by amine coupling, binder as analyte. (In general: In SPR one partner is held on a chip, and binding of the other changes the refractive index at the surface.)
For B3, the Kd amounted to 7.58 nM.

Turning to B4, the Kd amounted to 24 nM.

On to B5, for which the Kd is 11.1 nM.

As for B1, binding was put at a Kd of 8.3 nM.

Turning to B2, binding was put at a Kd of 26.5 nM.

In a further experiment the target is T1, cyno CD3. The description is as above.
Molecule B3 showed a dissociation constant (Kd) of 1.08 nM.

For the molecule B4, the Kd was found to be 56.7 nM.

With B5, the affinity, expressed as Kd, was 8.37 nM.

B1 yielded a Kd of 6.64 nM.

In the case of B2, the Kd turned out to be 47.7 nM.

For a further experiment, the target named is T4, human serum albumin (human, UniProt P02768 25-609).
T4 construct: also called HSA
Described as above.
The molecule B3 registered a Kd of 0.338 nM.

In the case of B4, the Kd amounted to 0.493 nM.

Turning to B5, binding was characterised by a dissociation constant (Kd) of 0.635 nM.

Consider B1, for which the Kd came out at 0.325 nM.

For B2, the Kd worked out at 0.495 nM.

The target in a further experiment is T2, human IL-23 receptor ECD. The experiment is described as above.
The molecule B3 yielded a Kd of 0.0378 nM.

Molecule B4 yielded a Kd of 0.0334 nM.

Consider B5, for which binding was put at a Kd of 0.0482 nM.

B1 registered a Kd of 0.0383 nM.

On to B2, for which the Kd turned out to be 0.0366 nM.
